{"source": "patent US8034769", "key": {"CD4": {"target": "CD4 (UniProt P01730)", "experiment": "SPR, BIACORE 2000, CD4 immobilized on C1 chip"}, "HIV-GP120 (HIV-1)": {"target": "HIV-GP120 (HIV-1)", "experiment": "SPR, BIACORE 2000, HIV-GP120 immobilized on C1 chip"}}, "data": [{"substance": "oxidized antithrombin III", "values": [{"measurement": "Kd", "setting": "CD4", "value": 1.63, "unit": "nM"}, {"measurement": "kon", "setting": "CD4", "value": 713000, "unit": "M⁻¹ s⁻¹"}, {"measurement": "Kd", "setting": "HIV-GP120 (HIV-1)", "value": 0.701, "unit": "nM"}, {"measurement": "kon", "setting": "HIV-GP120 (HIV-1)", "value": 638000, "unit": "M⁻¹ s⁻¹"}]}]}
